Numbered stars: 1 amine (or outer) side, 2 acyl side, 3 side chain; on linkers, the order of the positions; unused ones are H or OH. Square brackets hold non-standard residues; d marks the D form. Side chains are listed from the residue outwards. Ends that are not written are not given here. * marks the point of attachment. C20 diacid = O=C(O)CCCCCCCCCCCCCCCCCCC(=O)*; γGlu = O=C(O)[C@H](CCC(=O)[*:2])N[*:1]; AEEA = NCCOCCOCC(=O)O; Aib = CC(C)(N)C(=O)O
Assays:
[1] = biological target: human GLP-1 receptor (hGLP1R) (human, UniProt P43220 24-463); test: cell-based or functional assay
[2] = biological target: human secretin receptor (hSCTR) (human, UniProt P47872 23-440); test: cell-based or functional assay
Sequence of human secretin receptor (hSCTR) (P47872 23-440): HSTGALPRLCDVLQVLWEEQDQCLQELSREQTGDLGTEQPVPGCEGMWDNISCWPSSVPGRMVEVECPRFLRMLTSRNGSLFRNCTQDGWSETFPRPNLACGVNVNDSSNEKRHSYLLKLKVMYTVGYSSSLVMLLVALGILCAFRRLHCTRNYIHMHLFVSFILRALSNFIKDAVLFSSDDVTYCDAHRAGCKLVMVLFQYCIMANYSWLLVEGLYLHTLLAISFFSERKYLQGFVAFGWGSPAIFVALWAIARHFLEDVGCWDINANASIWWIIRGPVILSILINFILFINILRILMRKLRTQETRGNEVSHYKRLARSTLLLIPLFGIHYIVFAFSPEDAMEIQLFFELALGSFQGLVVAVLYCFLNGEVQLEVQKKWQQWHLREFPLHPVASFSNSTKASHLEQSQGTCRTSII

Binder | pEC50 hGLPR1 [1] | pEC50 hSCTR [2]
H[Aib]EGTFTSDVSELLEGAALQRFIQWLV-NH2 (N-terminus assumed; SMILES CC[C@H](C)[C@H](NC(=O)[C@H](Cc1ccccc1)NC(=O)[C@H](CCCNC(=N)N)NC(=O)[C@H](CCC(N)=O)NC(=O)[C@H](CC(C)C)NC(=O)[C@H](C)NC(=O)[C@H](C)NC(=O)CNC(=O)[C@H](CCC(=O)O)NC(=O)[C@H](CC(C)C)NC(=O)[C@H](CC(C)C)NC(=O)[C@H](CCC(=O)O)NC(=O)[C@H](CO)NC(=O)[C@@H](NC(=O)[C@H](CC(=O)O)NC(=O)[C@H](CO)NC(=O)[C@@H](NC(=O)[C@H](Cc1ccccc1)NC(=O)[C@@H](NC(=O)CNC(=O)[C@H](CCC(=O)O)NC(=O)C(C)(C)NC(=O)[C@@H](N)Cc1c[nH]cn1)[C@@H](C)O)[C@@H](C)O)C(C)C)C(=O)N[C@@H](CCC(N)=O)C(=O)N[C@@H](Cc1c[nH]c2ccccc12)C(=O)N[C@@H](CC(C)C)C(=O)N[C@H](C(N)=O)C(C)C) [SEQ ID NO: 180] | 10.8 -log M | 6.7 -log M
H[Aib]EGTFTSDVSGLLEGAALQRFIQWLV-NH2 (N-terminus assumed; SMILES CC[C@H](C)[C@H](NC(=O)[C@H](Cc1ccccc1)NC(=O)[C@H](CCCNC(=N)N)NC(=O)[C@H](CCC(N)=O)NC(=O)[C@H](CC(C)C)NC(=O)[C@H](C)NC(=O)[C@H](C)NC(=O)CNC(=O)[C@H](CCC(=O)O)NC(=O)[C@H](CC(C)C)NC(=O)[C@H](CC(C)C)NC(=O)CNC(=O)[C@H](CO)NC(=O)[C@@H](NC(=O)[C@H](CC(=O)O)NC(=O)[C@H](CO)NC(=O)[C@@H](NC(=O)[C@H](Cc1ccccc1)NC(=O)[C@@H](NC(=O)CNC(=O)[C@H](CCC(=O)O)NC(=O)C(C)(C)NC(=O)[C@@H](N)Cc1c[nH]cn1)[C@@H](C)O)[C@@H](C)O)C(C)C)C(=O)N[C@@H](CCC(N)=O)C(=O)N[C@@H](Cc1c[nH]c2ccccc12)C(=O)N[C@@H](CC(C)C)C(=O)N[C@H](C(N)=O)C(C)C) [SEQ ID NO: 182] | 10.3 -log M | 6.8 -log M
H[Aib]EGTFTSDVSWLLEGAALQRFIQWLV-NH2 (N-terminus assumed; SMILES CC[C@H](C)[C@H](NC(=O)[C@H](Cc1ccccc1)NC(=O)[C@H](CCCNC(=N)N)NC(=O)[C@H](CCC(N)=O)NC(=O)[C@H](CC(C)C)NC(=O)[C@H](C)NC(=O)[C@H](C)NC(=O)CNC(=O)[C@H](CCC(=O)O)NC(=O)[C@H](CC(C)C)NC(=O)[C@H](CC(C)C)NC(=O)[C@H](Cc1c[nH]c2ccccc12)NC(=O)[C@H](CO)NC(=O)[C@@H](NC(=O)[C@H](CC(=O)O)NC(=O)[C@H](CO)NC(=O)[C@@H](NC(=O)[C@H](Cc1ccccc1)NC(=O)[C@@H](NC(=O)CNC(=O)[C@H](CCC(=O)O)NC(=O)C(C)(C)NC(=O)[C@@H](N)Cc1c[nH]cn1)[C@@H](C)O)[C@@H](C)O)C(C)C)C(=O)N[C@@H](CCC(N)=O)C(=O)N[C@@H](Cc1c[nH]c2ccccc12)C(=O)N[C@@H](CC(C)C)C(=O)N[C@H](C(N)=O)C(C)C) [SEQ ID NO: 183] | 10.3 -log M | 6.8 -log M
H[Aib]EGTFTSDVSVLLEGAALQRFIQWLV-NH2 (N-terminus assumed; SMILES CC[C@H](C)[C@H](NC(=O)[C@H](Cc1ccccc1)NC(=O)[C@H](CCCNC(=N)N)NC(=O)[C@H](CCC(N)=O)NC(=O)[C@H](CC(C)C)NC(=O)[C@H](C)NC(=O)[C@H](C)NC(=O)CNC(=O)[C@H](CCC(=O)O)NC(=O)[C@H](CC(C)C)NC(=O)[C@H](CC(C)C)NC(=O)[C@@H](NC(=O)[C@H](CO)NC(=O)[C@@H](NC(=O)[C@H](CC(=O)O)NC(=O)[C@H](CO)NC(=O)[C@@H](NC(=O)[C@H](Cc1ccccc1)NC(=O)[C@@H](NC(=O)CNC(=O)[C@H](CCC(=O)O)NC(=O)C(C)(C)NC(=O)[C@@H](N)Cc1c[nH]cn1)[C@@H](C)O)[C@@H](C)O)C(C)C)C(C)C)C(=O)N[C@@H](CCC(N)=O)C(=O)N[C@@H](Cc1c[nH]c2ccccc12)C(=O)N[C@@H](CC(C)C)C(=O)N[C@H](C(N)=O)C(C)C) [SEQ ID NO: 184] | 10.6 -log M | 6.6 -log M
H[Aib]EGTFTSDWSYLK([AEEA-AEEA-γGlu-C20 diacid])EEA[Aib]LQRFLEHLV-NH2 [SEQ ID NO: 185] | 11.2 -log M | 7.3 -log M
H[Aib]EGTFTSDVSRLK([AEEA-AEEA-γGlu-C20 diacid])ELAASQRFLEHLV-NH2 [SEQ ID NO: 19] | 10.1 -log M | 6.2 -log M
H[Aib]EGTFTSDWSGLLEGAALQRFIQWLV-NH2 (N-terminus assumed; SMILES CC[C@H](C)[C@H](NC(=O)[C@H](Cc1ccccc1)NC(=O)[C@H](CCCNC(=N)N)NC(=O)[C@H](CCC(N)=O)NC(=O)[C@H](CC(C)C)NC(=O)[C@H](C)NC(=O)[C@H](C)NC(=O)CNC(=O)[C@H](CCC(=O)O)NC(=O)[C@H](CC(C)C)NC(=O)[C@H](CC(C)C)NC(=O)CNC(=O)[C@H](CO)NC(=O)[C@H](Cc1c[nH]c2ccccc12)NC(=O)[C@H](CC(=O)O)NC(=O)[C@H](CO)NC(=O)[C@@H](NC(=O)[C@H](Cc1ccccc1)NC(=O)[C@@H](NC(=O)CNC(=O)[C@H](CCC(=O)O)NC(=O)C(C)(C)NC(=O)[C@@H](N)Cc1c[nH]cn1)[C@@H](C)O)[C@@H](C)O)C(=O)N[C@@H](CCC(N)=O)C(=O)N[C@@H](Cc1c[nH]c2ccccc12)C(=O)N[C@@H](CC(C)C)C(=O)N[C@H](C(N)=O)C(C)C) [SEQ ID NO: 187] | 10.4 -log M | 7.3 -log M
H[Aib]EGTFTSDWSVLLEGAALQRFIQWLV-NH2 (N-terminus assumed; SMILES CC[C@H](C)[C@H](NC(=O)[C@H](Cc1ccccc1)NC(=O)[C@H](CCCNC(=N)N)NC(=O)[C@H](CCC(N)=O)NC(=O)[C@H](CC(C)C)NC(=O)[C@H](C)NC(=O)[C@H](C)NC(=O)CNC(=O)[C@H](CCC(=O)O)NC(=O)[C@H](CC(C)C)NC(=O)[C@H](CC(C)C)NC(=O)[C@@H](NC(=O)[C@H](CO)NC(=O)[C@H](Cc1c[nH]c2ccccc12)NC(=O)[C@H](CC(=O)O)NC(=O)[C@H](CO)NC(=O)[C@@H](NC(=O)[C@H](Cc1ccccc1)NC(=O)[C@@H](NC(=O)CNC(=O)[C@H](CCC(=O)O)NC(=O)C(C)(C)NC(=O)[C@@H](N)Cc1c[nH]cn1)[C@@H](C)O)[C@@H](C)O)C(C)C)C(=O)N[C@@H](CCC(N)=O)C(=O)N[C@@H](Cc1c[nH]c2ccccc12)C(=O)N[C@@H](CC(C)C)C(=O)N[C@H](C(N)=O)C(C)C) [SEQ ID NO: 188] | 10.1 -log M | 7.5 -log M

Second part, the binder after the results:

pEC50 hGLPR1 [1] | pEC50 hSCTR [2] | Binder
10.1 -log M | 6.3 -log M | H[Aib]EGTFTSDVS[Aib]LLEGAALQRFIQWLV-NH2 (N-terminus assumed; SMILES CC[C@H](C)[C@H](NC(=O)[C@H](Cc1ccccc1)NC(=O)[C@H](CCCNC(=N)N)NC(=O)[C@H](CCC(N)=O)NC(=O)[C@H](CC(C)C)NC(=O)[C@H](C)NC(=O)[C@H](C)NC(=O)CNC(=O)[C@H](CCC(=O)O)NC(=O)[C@H](CC(C)C)NC(=O)[C@H](CC(C)C)NC(=O)C(C)(C)NC(=O)[C@H](CO)NC(=O)[C@@H](NC(=O)[C@H](CC(=O)O)NC(=O)[C@H](CO)NC(=O)[C@@H](NC(=O)[C@H](Cc1ccccc1)NC(=O)[C@@H](NC(=O)CNC(=O)[C@H](CCC(=O)O)NC(=O)C(C)(C)NC(=O)[C@@H](N)Cc1c[nH]cn1)[C@@H](C)O)[C@@H](C)O)C(C)C)C(=O)N[C@@H](CCC(N)=O)C(=O)N[C@@H](Cc1c[nH]c2ccccc12)C(=O)N[C@@H](CC(C)C)C(=O)N[C@H](C(N)=O)C(C)C) [SEQ ID NO: 179]
10.3 -log M | 6.7 -log M | H[Aib]EGTFTSDVSYLLEGAALQRFIQWLV-NH2 (N-terminus assumed; SMILES CC[C@H](C)[C@H](NC(=O)[C@H](Cc1ccccc1)NC(=O)[C@H](CCCNC(=N)N)NC(=O)[C@H](CCC(N)=O)NC(=O)[C@H](CC(C)C)NC(=O)[C@H](C)NC(=O)[C@H](C)NC(=O)CNC(=O)[C@H](CCC(=O)O)NC(=O)[C@H](CC(C)C)NC(=O)[C@H](CC(C)C)NC(=O)[C@H](Cc1ccc(O)cc1)NC(=O)[C@H](CO)NC(=O)[C@@H](NC(=O)[C@H](CC(=O)O)NC(=O)[C@H](CO)NC(=O)[C@@H](NC(=O)[C@H](Cc1ccccc1)NC(=O)[C@@H](NC(=O)CNC(=O)[C@H](CCC(=O)O)NC(=O)C(C)(C)NC(=O)[C@@H](N)Cc1c[nH]cn1)[C@@H](C)O)[C@@H](C)O)C(C)C)C(=O)N[C@@H](CCC(N)=O)C(=O)N[C@@H](Cc1c[nH]c2ccccc12)C(=O)N[C@@H](CC(C)C)C(=O)N[C@H](C(N)=O)C(C)C) [SEQ ID NO: 181]
10.8 -log M | 6.8 -log M | H[Aib]EGTFTSDWSYLLEGAALQRFIQWLV-NH2 (N-terminus assumed; SMILES CC[C@H](C)[C@H](NC(=O)[C@H](Cc1ccccc1)NC(=O)[C@H](CCCNC(=N)N)NC(=O)[C@H](CCC(N)=O)NC(=O)[C@H](CC(C)C)NC(=O)[C@H](C)NC(=O)[C@H](C)NC(=O)CNC(=O)[C@H](CCC(=O)O)NC(=O)[C@H](CC(C)C)NC(=O)[C@H](CC(C)C)NC(=O)[C@H](Cc1ccc(O)cc1)NC(=O)[C@H](CO)NC(=O)[C@H](Cc1c[nH]c2ccccc12)NC(=O)[C@H](CC(=O)O)NC(=O)[C@H](CO)NC(=O)[C@@H](NC(=O)[C@H](Cc1ccccc1)NC(=O)[C@@H](NC(=O)CNC(=O)[C@H](CCC(=O)O)NC(=O)C(C)(C)NC(=O)[C@@H](N)Cc1c[nH]cn1)[C@@H](C)O)[C@@H](C)O)C(=O)N[C@@H](CCC(N)=O)C(=O)N[C@@H](Cc1c[nH]c2ccccc12)C(=O)N[C@@H](CC(C)C)C(=O)N[C@H](C(N)=O)C(C)C) [SEQ ID NO: 189]
